This note sets out measurements from publication PMC4853233.

This data set can be described thus: anti-FLAG western blot, 293T cells. The following applies: glycan lost; control: WT-TWSG1 adenovirus.

B1: twisted gastrulation (TWSG1): N80Q/N146Q (protein)
parent chain: MKSHYIVLALASLTFLLCLPVSQSCNKALCASDVSKCLIQELCQCRPGEGNCPCCKECMLCLGALWDECCDCVGMCNPRNYSDTPPTSKSTVEELHEPIPSLFRALTEGDTQLNWNIVSFPVAEELSHHENLVSFLETVNQLHHQNVSVPSNNVHAPFPSDKERMCTVVYFDDCMSIHQCKISCESMGASKYRWFHNACCECIGPECIDYGSKTVKCMNCMF
With B1, the expression_or_secretion result is recorded as “no change”.
